This note sets out measurements from US20260007756A1, “COMPOUND AND USE THEREOF” (COHERENT BIOPHARMA (SUZHOU) LIMITED, priority 2022, published 2026).

Series [1] deals with 22RV1. The format is cell-based, human. Conditions: 22RV1, 72 h, CellTiter-Glo. The text has this:
(§1) Negative and blank controls were set.

In series [2] the test system is MDA-MB-231. The format is cell-based, human. The settings on record: MDA-MB-231, 72 h, CellTiter-Glo.
From the text: as §1
(In general: In ATP-based viability assays light output follows the ATP content of the culture.)

The nature of series [3]: Solubility study in PBS. The format is physicochemical. The settings on record: aqueous buffer, thermodynamic from solid; PBS (pH 7.2 to 7.4); read-out: Solubility, concentration. The protocol:
The mixture was vortexed for 2 min until the solid was dissolved. The solubility was calculated as: C=m/V, C: concentration, m: sample weight, V: PBS total volume.

Series [4] is described as follows: Plasma stability study 2. The format is in vitro ADME. Conditions: mouse plasma, 37° C.

pIC50: −log10 of the molar value. Values after ≈ are worked out from the molar mass of the structure shown. Numbered stars: 1 amine (or outer) side, 2 acyl side, 3 side chain; on linkers, the order of the positions; unused ones are H or OH. Square brackets hold non-standard residues; d marks the D form. Side chains are listed from the residue outwards. Peptide text beside a SMILES is read from it. * marks the point of attachment. EuK = O=C(O)CC[C@H](NC(=O)N[C@@H](CCCCN*)C(=O)O)C(=O)O; Pteroyl = Nc1nc2ncc(CNc3ccc(C(=O)*)cc3)nc2c(=O)[nH]1; γGlu = O=C(O)[C@H](CCC(=O)[*:2])N[*:1]; X1 = O=C(Cc1ccc(CN[*:1])cc1)[*:2]; Pra = C#CC[C@H](N)C(=O)O; CO = O=C([*:1])[*:2]

For orientation: pIC50 means the negative decadic logarithm of the IC50, by convention in mol/L. A higher pIC50 goes with a small IC50. Consider `CC[C@@H]1C(=O)N(C)c2cnc(Nc3ccc(-c4cn([C@H]5CC[C@@H](N(CCOCCC#Cc6cccc7c6CN(C6CCC(=O)NC6=O)C7=O)C(=O)CNC(=O)[C@@H]6CCCN6C(=O)[C@H](CCCNC(N)=O)NC(=O)[C@@H](NC(=O)COCCOCCn6cc(C[C@H](NC(=O)[C@H](CCCCN)NC(=O)[C@H](CC(=O)O)NC(=O)[C@H](CC(=O)O)NC(=O)Cc7ccc(CNC(=O)NCCCC[C@H](NC(=O)N[C@@H](CCC(=O)O)C(=O)O)C(=O)O)cc7)C(=O)N[C@@H](CCCCNC(=O)CC[C@H](NC(=O)c7ccc(NCc8cnc9[nH]c(N)nc(=O)c9n8)cc7)C(=O)O)C(N)=O)nn6)C(C)C)CC5)nn4)cc3OC)nc2N1C1CCCC1` (some centres unmarked) [CR202GQ], for which the pIC50 in series [1] is 5.50; in series [2], 5.35.
With `CC[C@@H]1C(=O)N(C)c2cnc(Nc3ccc(-c4cn([C@H]5CC[C@@H](N(CCOCCC#Cc6cccc7c6CN(C6CCC(=O)NC6=O)C7=O)C(=O)OC[C@@H](C)SSC[C@H](NC(=O)[C@H](CCCCN)NC(=O)[C@H](CC(=O)O)NC(=O)[C@H](CC(=O)O)NC(=O)Cc6ccc(CNC(=O)NCCCC[C@H](NC(=O)N[C@@H](CCC(=O)O)C(=O)O)C(=O)O)cc6)C(=O)N[C@@H](CCCCNC(=O)CC[C@H](NC(=O)c6ccc(NCc7cnc8[nH]c(N)nc(=O)c8n7)cc6)C(=O)O)C(N)=O)CC5)nn4)cc3OC)nc2N1C1CCCC1` (some centres unmarked) [CR202HV], the pIC50 was 6.81 in series [1] and 7.85 in series [2].
As to `C#CC[C@H](NC(=O)[C@H](CCCCN)NC(=O)[C@H](CC(=O)O)NC(=O)[C@H](CC(=O)O)NC(=O)Cc1ccc(CNC(=O)NCCCC[C@H](NC(=O)N[C@@H](CCC(=O)O)C(=O)O)C(=O)O)cc1)C(=O)N[C@@H](CCCCNC(=O)CC[C@H](NC(=O)c1ccc(NCc2cnc3[nH]c(N)nc(=O)c3n2)cc1)C(=O)O)C(N)=O` [CR202W4] ({EuK-CO}-[X1]DDK[Pra]K([γGlu-Pteroyl])-NH2), in series [3], the solubility came out at 2800 µg/mL (≈ 1.85 mM).
With `CC[C@@H]1C(=O)N(C)c2cnc(Nc3ccc(-c4cn([C@H]5CC[C@@H](N(CCOCCC#Cc6cccc7c6CN(C6CCC(=O)NC6=O)C7=O)C(=O)OCc6ccc(NC(=O)[C@H](CC(N)=O)NC(=O)[C@H](CC(N)=O)NC(=O)CNC(=O)COCCOCCn7cc(C[C@H](NC(=O)[C@H](CCCCN)NC(=O)[C@H](CC(=O)O)NC(=O)[C@H](CC(=O)O)NC(=O)Cc8ccc(CNC(=O)NCCCC[C@H](NC(=O)N[C@@H](CCC(=O)O)C(=O)O)C(=O)O)cc8)C(=O)N[C@@H](CCCCNC(=O)CC[C@H](NC(=O)c8ccc(NCc9cnc%10[nH]c(N)nc(=O)c%10n9)cc8)C(=O)O)C(N)=O)nn7)cc6)CC5)nn4)cc3OC)nc2N1C1CCCC1` (some centres unmarked) [CR202V9], the “CR20274 release rate (actual release/theoretical release)” value in series [4] (0 h) was 0.11%; in series [4] (0.5 h), 0.17%; in series [4] (1 h) it was 0.22%; in series [4] (2 h), 0.21%; in series [4] (4 h), 0.25%; in series [4] (6 h) it was 0.30%. In addition, the “CR20274 release rate (actual release/theoretical release)” value in series [4] (24 h) came out at 1.46%. For the same compound, the “Residual rate of principal component” value amounted to 99.22% in series [4] (0 h) and 0.62% in series [4] (24 h). Besides, the remaining at 0.5 h, 100 μg/mL in series [4] (0.5 h, read-out: Residual rate of principal component) turned out to be 99.8%. In addition, the remaining at 1 h, 100 μg/mL in series [4] (1 h, read-out: Residual rate of principal component) amounted to 98.4%. Also, the remaining at 2 h, 100 μg/mL in series [4] (2 h, read-out: Residual rate of principal component) came out at 89.6%. For the same compound, the remaining at 4 h, 100 μg/mL in series [4] (4 h, read-out: Residual rate of principal component) was found to be 67.1%. Moreover, the remaining at 6 h, 100 μg/mL in series [4] (6 h, read-out: Residual rate of principal component) amounted to 66.3%. The solubility in series [3] is 15800 µg/mL (≈ 5.26 mM).
Take `CC[C@@H]1C(=O)N(C)c2cnc(Nc3ccc(-c4cn([C@H]5CC[C@@H](N(CCOCCC#Cc6cccc7c6CN(C6CCC(=O)NC6=O)C7=O)C(=O)OCc6ccc(NC(=O)[C@H](CCCNC(N)=O)NC(=O)[C@@H](NC(=O)OCCOCCNS(=O)(=O)NC(=O)OCCn7cc(C[C@H](NC(=O)[C@H](CCCCN)NC(=O)[C@H](CC(=O)O)NC(=O)[C@H](CC(=O)O)NC(=O)Cc8ccc(CNC(=O)NCCCC[C@H](NC(=O)N[C@@H](CCC(=O)O)C(=O)O)C(=O)O)cc8)C(=O)N[C@@H](CCCCNC(=O)CC[C@H](NC(=O)c8ccc(NCc9cnc%10[nH]c(N)nc(=O)c%10n9)cc8)C(=O)O)C(N)=O)nn7)C(C)C)cc6)CC5)nn4)cc3OC)nc2N1C1CCCC1` (some centres unmarked) [CR202GM]: the pIC50 was 6.54 in series [1] and 6.29 in series [2].
The like results for `CC[C@@H]1C(=O)N(C)c2cnc(Nc3ccc(-c4cn([C@H]5CC[C@@H](N(CCOCCC#Cc6cccc7c6CN(C6CCC(=O)NC6=O)C7=O)C(=O)NCCNC(=O)OCc6ccc(NC(=O)[C@H](CCCNC(N)=O)NC(=O)[C@@H](NC(=O)COCCOCCn7cc(C[C@H](NC(=O)[C@H](CCCCN)NC(=O)[C@H](CC(=O)O)NC(=O)[C@H](CC(=O)O)NC(=O)Cc8ccc(CNC(=O)NCCCC[C@H](NC(=O)N[C@@H](CCC(=O)O)C(=O)O)C(=O)O)cc8)C(=O)N[C@@H](CCCCNC(=O)CC[C@H](NC(=O)c8ccc(NCc9cnc%10[nH]c(N)nc(=O)c%10n9)cc8)C(=O)O)C(N)=O)nn7)C(C)C)cc6)CC5)nn4)cc3OC)nc2N1C1CCCC1` (some centres unmarked) [CR202HJ] were, in that order, 5.92 and 5.44.
Taken in the same sequence, the figures for `CC[C@@H]1C(=O)N(C)c2cnc(Nc3ccc(-c4cn([C@H]5CC[C@@H](N(CCOCCC#Cc6cccc7c6CN(C6CCC(=O)NC6=O)C7=O)C(=O)OCc6ccc(NC(=O)[C@H](CCCNC(N)=O)NC(=O)[C@@H](NC(=O)COCCOCCn7cc(C[C@H](NC(=O)[C@H](CCCCN)NC(=O)[C@H](CC(=O)O)NC(=O)[C@H](CC(=O)O)NC(=O)Cc8ccc(CNC(=O)NCCCC[C@H](NC(=O)N[C@@H](CCC(=O)O)C(=O)O)C(=O)O)cc8)C(=O)N[C@@H](CCCCNC(=O)CC[C@H](NC(=O)c8ccc(NCc9cnc%10[nH]c(N)nc(=O)c%10n9)cc8)C(=O)O)C(N)=O)nn7)C(C)C)c(OC)c6)CC5)nn4)cc3OC)nc2N1C1CCCC1` (some centres unmarked) [CR202FU] were 6.33 and 6.10.
